{"source": "paper PMC11180338", "about": "(The Journal of Biological Chemistry, 2024)", "key": {"[1]": {"molecular_target": "nucleocapsid protein (N) 175-245 (UniProt P0DTC9)", "conditions": "sites S188"}, "[2]": {"molecular_target": "nucleocapsid protein (N) 175-245 (UniProt P0DTC9)", "conditions": "sites S188", "remark": "listed apart in the source"}, "[3]": {"molecular_target": "nucleocapsid protein (N) 175-365 (UniProt P0DTC9)", "conditions": "sites S188"}, "[4]": {"molecular_target": "the molecule itself", "assay": "AUC"}}, "note": "Like-named read-outs stand apart in the source and are kept apart here."}
{"molecule": "nucleocapsid protein (N) 175-245 (from UniProt P0DTC9)", "values": [{"measurement": "binding against the reference", "setting": "[1]", "result": "weaker"}, {"measurement": "binding against the reference", "setting": "[2]", "result": "weaker"}]}
{"molecule": "nucleocapsid protein (N) 175-365 (from UniProt P0DTC9)", "values": [{"measurement": "binding against the reference", "setting": "[3]", "result": "same"}]}
{"molecule": "WT-N_(175–245) GFP, GFP-tagged N_(175–245) (domain or fragment) GSRGGSQASSRSSSRSRNSSRNSTPGSSRGTSPARMAGNGGDAALALLLLDRLNQLESKMSGKGQQQQGQT", "values": [{"measurement": "Kd", "setting": "[4]", "result": 77, "unit": "µM"}, {"measurement": "stoichiometry N", "setting": "[4]", "result": 2}]}
{"molecule": "pSer188-N_(175–245) GFP (domain or fragment, phosphoserine at 188) GSRGGSQASSRSSSRSRNSSRNSTPGSSRGTSPARMAGNGGDAALALLLLDRLNQLESKMSGKGQQQQGQT", "values": [{"measurement": "Kd", "setting": "[4]", "result": 235, "unit": "µM"}]}
